Measured values: patent US20240327516A1 (Zymeworks, published 2024)
Like-named read-outs stand apart in the source and are kept apart here.

Experiments:
[1] = target: T1, mesothelin (MSLN) on MSLN-expressing tumor cells (human, UniProt Q13421 296-598)
[2] = target: T1, mesothelin (MSLN) on MSLN-expressing …; remark: listed apart in the source
[3] = target: T1, mesothelin (MSLN) on MSLN-expressing …; experiment: cell-based or functional assay
[4] = target: T2, CD3 on CD3+ Jurkat cells and primary human T cells (human, UniProt P07766 23-207); experiment: flow cytometry on primary human T cells, apparent affinity
T2 construct: whole, on cells; also called native CD3; CD3ε
T2 sequence (P07766 23-207): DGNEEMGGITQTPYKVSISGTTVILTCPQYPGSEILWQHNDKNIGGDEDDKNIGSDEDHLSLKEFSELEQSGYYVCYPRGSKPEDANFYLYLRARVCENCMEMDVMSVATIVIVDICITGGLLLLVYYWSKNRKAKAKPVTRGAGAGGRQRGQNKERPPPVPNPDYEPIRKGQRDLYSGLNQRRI

[5] = target: T2, CD3 on CD3+ Jurkat cells and primary …; experiment: whole-cell ELISA on CD3+ Jurkat cells, apparent affinity; Jurkat cells
[6] = target: T1, mesothelin (MSLN) on MSLN-expressing …; remark: listed apart in the source
[7] = target: T1, mesothelin (MSLN) on MSLN-expressing …; remark: listed apart in the source
[8] = target: T2, CD3 on CD3+ Jurkat cells and primary …; experiment: whole-cell ELISA on CD3+ Jurkat cells, apparent affinity
[9] = target: T1, mesothelin (MSLN) on MSLN-expressing …; experiment: whole-cell flow cytometry on OVCAR-3 cells, apparent affinity
[10] = target: T2, CD3 on CD3+ Jurkat cells and primary …; experiment: cell ELISA on whole CD3+ Jurkat cells (HRP anti-human IgG Fc, A 450nm)
[11] = target: T1, mesothelin (MSLN) on MSLN-expressing …; experiment: flow cytometry on MSLN+ OVCAR-3 cells (Alexa Fluor 647 anti-IgG-Fc, MFI)
[12] = target: T2, CD3 on CD3+ Jurkat cells and primary …; experiment: flow cytometry on primary human CD4+ T cells (anti-IgG-Fc detection, geo MFI)
[13] = target: T2, CD3 on CD3+ Jurkat cells and primary …; experiment: flow cytometry on primary human CD8+ T cells (anti-IgG-Fc detection, geo MFI)
[14] = target: T1, mesothelin (MSLN) on MSLN-expressing …; experiment: cell-based or functional assay; remark: listed apart in the source
[15] = target: MSLN (form in the assay not stated) (UniProt Q13421 296-580); experiment: method and antigen form not stated in Table 12
Chain of MSLN (form in the assay not stated) (Q13421 other isoform, or with tags, fused parts or gaps limits assumed): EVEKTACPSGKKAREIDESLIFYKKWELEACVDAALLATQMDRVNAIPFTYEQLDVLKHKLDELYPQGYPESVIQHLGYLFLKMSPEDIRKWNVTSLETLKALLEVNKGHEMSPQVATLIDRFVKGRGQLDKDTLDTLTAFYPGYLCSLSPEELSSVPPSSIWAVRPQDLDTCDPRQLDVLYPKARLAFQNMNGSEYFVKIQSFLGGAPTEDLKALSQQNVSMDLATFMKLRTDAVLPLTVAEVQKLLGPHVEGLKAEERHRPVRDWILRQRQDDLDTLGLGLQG

[16] = target: T2, CD3 on CD3+ Jurkat cells and primary …; experiment: whole-cell ELISA on CD3+ Jurkat cells, apparent affinity; main value of the cell, outside the parentheses
[17] = target: T2, CD3 on CD3+ Jurkat cells and primary …; experiment: whole-cell flow cytometry on primary human T cells, apparent affinity

T1 sequence (Q13421 other isoform, or with tags, fused parts or gaps limits assumed): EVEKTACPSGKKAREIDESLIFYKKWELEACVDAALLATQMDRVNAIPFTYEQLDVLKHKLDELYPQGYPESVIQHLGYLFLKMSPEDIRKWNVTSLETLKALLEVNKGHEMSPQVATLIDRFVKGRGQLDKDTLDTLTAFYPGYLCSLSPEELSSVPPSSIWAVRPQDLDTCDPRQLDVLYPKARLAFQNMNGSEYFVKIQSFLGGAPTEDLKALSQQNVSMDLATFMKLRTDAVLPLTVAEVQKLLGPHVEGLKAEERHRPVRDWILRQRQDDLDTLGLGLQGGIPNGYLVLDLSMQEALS

B1: v21791, trivalent and bispecific antibody construct [MSLN (2 Fab) x CD3 (1 Fab)] (bispecific antibody, human IgG1, kappa, lambda, L234A L235A)
heavy 1: not shown
heavy 2: QVQLVQSGAEVKKPGASVKVSCKASGYSFTGYTMNWVRQAPGQGLEWMGLITPYNGASSYNQKFRGKATMTVDTSTSTVYMELSSLRSEDTAVYYCARGGYDGRGFDYWGQGTLVTVSSASTKGPSVFPRAPSSKSTSGGTAALGCLVKDYFPEPVTVSWNSGALTSGVHTFPAVLQSSGLYKLSSVVTVPSSSLGTQTYICNVNHKPSNTKVDKKVEPKSCDKTHTCPPCPAPEAAGGPSVFLFPPKPKDTLMISRTPEVTCVVVSVSHEDPEVKFNWYVDGVEVHNAKTKPREEQYNSTYRVVSVLTVLHQDWLNGKEYKCKVSNKALPAPIEKTISKAKGQPREPQVYVLPPSRDELTKNQVSLLCLVKGFYPSDIAVEWESNGQPENNYLTWPPVLDSDGSFFLYSKLTVDKSRWQQGNVFSCSVMHEALHNHYTQKSLSLSPG
light 1: NFMLTQPHSVSESPGKTVTISCKRNTGNIGSNYVNWYQQHEGSSPTTIIYRNDKRPDGVSDRFSGSIDRSSKSASLTISNLKTEDEADYFCQSYSSGFIFGGGTKLTVLGQPKAAPSVTLFPPSSEQLQANKARLVCLISDFYPGAVTVAWKADSSPVKAGVETTTPSKQSNNKYAASSYLSLTPEQWKSHKSYSCQVTHEGSTVEKTVAPAECS
light 2: DIQMTQSPSSLSASVGDRVTITCSASSSVSYMHWYQQKSGKAPKLLIYDTSKLASGVPSRFSGSGSGTDFTLTISSLQPEDFATYYCQQWSGYPLTFGQGTKLEIKRTVAAPSVFIFPPSDEQLKSGTASVGCWLNNFYPREAKVQWKVDNALQSGNSQESVTEQDSKDSTYSLDSTLELSKADYEKHKVYACEVTHQGLSSPVTKSFNRGEC
notes: also called Fab^3 construct; triple-Fab construct
EC50 [1]: 1.9 nM
EC50 (read off the curve) [2]: ~0.7 nM
maximum killing of BxPC3 cells [3]: 60%
EC50 [4]: 7.4 nM
EC50 [5]: 402 nM

B2: v21815, bivalent and bispecific antibody construct [MSLN (1 Fab) x CD3 (1 scFv)] (bispecific antibody, human IgG1, kappa, L234A L235A)
heavy 1: not shown
heavy 2: QVQLVQSGAEVKKPGASVKVSCKASGYSFTGYTMNWVRQAPGQGLEWMGLITPYNGASSYNQKFRGKATMTVDTSTSTVYMELSSLRSEDTAVYYCARGGYDGRGFDYWGQGTLVTVSSASTKGPSVFPLAPSSKSTSGGTAALGCLVKDYFPEPVTVSWNSGALTSGVHTFPAVLQSSGLYSLSSVVTVPSSSLGTQTYICNVNHKPSNTKVDKKVEPKSCDKTHTCPPCPAPEAAGGPSVFLFPPKPKDTLMISRTPEVTCVVVSVSHEDPEVKFNWYVDGVEVHNAKTKPREEQYNSTYRVVSVLTVLHQDWLNGKEYKCKVSNKALPAPIEKTISKAKGQPREPQVYVLPPSRDELTKNQVSLLCLVKGFYPSDIAVEWESNGQPENNYLTWPPVLDSDGSFFLYSKLTVDKSRWQQGNVFSCSVMHEALHNHYTQKSLSLSPG
light: DIQMTQSPSSLSASVGDRVTITCSASSSVSYMHWYQQKSGKAPKLLIYDTSKLASGVPSRFSGSGSGTDFTLTISSLQPEDFATYYCQQWSGYPLTFGQGTKLEIKRTVAAPSVFIFPPSDEQLKSGTASVVCLLNNFYPREAKVQWKVDNALQSGNSQESVTEQDSKDSTYSLSSTLTLSKADYEKHKVYACEVTHQGLSSPVTKSFNRGEC
notes: also called 1x1 construct; 1+1 anti-CD3 scFv x anti-MSLN Fab construct
Kd [6]: ~1.73 nM
EC50 [1]: 1.7 nM
EC50 (read off the curve) [7]: ~2 nM
maximum killing of BxPC3 cells [3]: 35%
EC50 [8]: 2.4 nM
EC50 [4]: 0.2 nM
EC50 [9]: 6.7 nM
EC50 (read off the curve) [10]: ~2 nM
EC50 (read off the curve) [11]: ~7 nM
EC50 (read off the curve) [12]: ~2 nM
EC50 (read off the curve) [13]: ~2 nM

B3: v29048, trivalent and bispecific antibody construct [MSLN (2 scFv) x CD3 (1 Fab)] (bispecific antibody, human IgG1, lambda, L234A L235A)
heavy 1: not shown
heavy 2: EVQLLESGGGLVQPGGSVRISCAASGYSFTGYTMNWVRQAPGKGLEWIGLITPYSGASSYADSFKGRATLSVDNSKNTAYMQLNSLRAEDTAVYYCARGGYDGRGFDYWGQGTLVTVSSGGGGSGGGGSGGGGSDIQLTQSPSSLSASVGDRVTMTCSASSSVSYMHWYQQKPGKAPKLWIYDTSKLASGVPSRFSGSGSGTDYTLTISSVQPEDFATYYCQQWSKHPLTFGQGTKVEIKAAEPKSSDKTHTCPPCPAPEAAGGPSVFLFPPKPKDTLMISRTPEVTCVVVSVSHEDPEVKFNWYVDGVEVHNAKTKPREEQYNSTYRVVSVLTVLHQDWLNGKEYKCKVSNKALPAPIEKTISKAKGQPREPQVYVLPPSRDELTKNQVSLLCLVKGFYPSDIAVEWESNGQPENNYLTWPPVLDSDGSFFLYSKLTVDKSRWQQGNVFSCSVMHEALHNHYTQKSLSLSPG
light: NFMLTQPHSVSESPGKTVTISCKRNTGNIGSNYVNWYQQHEGSSPTTIIYRNDKRPDGVSDRFSGSIDRSSKSASLTISNLKTEDEADYFCQSYSSGFIFGGGTKLTVLGQPKAAPSVTLFPPSSEELQANKATLVCLISDFYPGAVTVAWKADSSPVKAGVETTTPSKQSNNKYAASSYLSLTPEQWKSHRSYSCQVTHEGSTVEKTVAPTECS
EC50 [1]: 0.5 nM
IC50 of T cell-dependent cytotoxicity on OVCAR-3 cells (pan T cells, E:T 5:1, 72 h) [14]: 0.0004 nM
Affinity to MSln [15]: 9.8 nM
EC50 [4]: 183 nM
EC50 [16]: 5.5 nM

B4: v29045, trivalent and bispecific antibody construct [MSLN (2 scFv) x CD3 (1 Fab)] (bispecific antibody, human IgG1, lambda, L234A L235A)
heavy 1: not shown
heavy 2: QVQLVQSGAEVKKPGASVKISCKASGYSFTGYTMNWVRQAPGQGLEWIGLITPYSGASSYAQKFQGRATLTVDKSTSTAYMELSSLRSEDTAVYYCARGGYDGRGFDYWGQGTLVTVSSGGGGSGGGGSGGGGSEIVLTQSPATLSLSPGERVTMSCSASSSVSYMHWYQQKPGQAPRLWIYDTSKLASGVPARFSGSGSGTDYTLTISSVEPEDFAVYYCQQWSGYPLTFGQGTKVEIKAAEPKSSDKTHTCPPCPAPEAAGGPSVFLFPPKPKDTLMISRTPEVTCVVVSVSHEDPEVKFNWYVDGVEVHNAKTKPREEQYNSTYRVVSVLTVLHQDWLNGKEYKCKVSNKALPAPIEKTISKAKGQPREPQVYVLPPSRDELTKNQVSLLCLVKGFYPSDIAVEWESNGQPENNYLTWPPVLDSDGSFFLYSKLTVDKSRWQQGNVFSCSVMHEALHNHYTQKSLSLSPG
light: NFMLTQPHSVSESPGKTVTISCKRNTGNIGSNYVNWYQQHEGSSPTTIIYRNDKRPDGVSDRFSGSIDRSSKSASLTISNLKTEDEADYFCQSYSSGFIFGGGTKLTVLGQPKAAPSVTLFPPSSEELQANKATLVCLISDFYPGAVTVAWKADSSPVKAGVETTTPSKQSNNKYAASSYLSLTPEQWKSHRSYSCQVTHEGSTVEKTVAPTECS
EC50 [1]: 0.4 nM
IC50 of T cell-dependent cytotoxicity on OVCAR-3 cells (pan T cells, E:T 5:1, 72 h) [14]: 0.0272 nM
Affinity to MSln [15]: 62.6 nM
EC50 [8]: 1.3 nM

B5: v18490, anti-MSLN antibody (mAb, MSLN (SS) Fab x 2) (antibody, human IgG1, kappa, L234A L235A)
heavy 1: QVQLVQSGAEVKKPGASVKVSCKASGYSFTGYTMNWVRQAPGQGLEWMGLITPYNGASSYNQKFRGKATMTVDTSTSTVYMELSSLRSEDTAVYYCARGGYDGRGFDYWGQGTLVTVSSASTKGPSVFPLAPSSKSTSGGTAALGCLVKDYFPEPVTVSWNSGALTSGVHTFPAVLQSSGLYSLSSVVTVPSSSLGTQTYICNVNHKPSNTKVDKKVEPKSCDKTHTCPPCPAPEAAGGPSVFLFPPKPKDTLMISRTPEVTCVVVSVSHEDPEVKFNWYVDGVEVHNAKTKPREEQYNSTYRVVSVLTVLHQDWLNGKEYKCKVSNKALPAPIEKTISKAKGQPREPQVYVLPPSRDELTKNQVSLLCLVKGFYPSDIAVEWESNGQPENNYLTWPPVLDSDGSFFLYSKLTVDKSRWQQGNVFSCSVMHEALHNHYTQKSLSLSPG
heavy 2: not shown
light: DIQMTQSPSSLSASVGDRVTITCSASSSVSYMHWYQQKSGKAPKLLIYDTSKLASGVPSRFSGSGSGTDFTLTISSLQPEDFATYYCQQWSGYPLTFGQGTKLEIKRTVAAPSVFIFPPSDEQLKSGTASVVCLLNNFYPREAKVQWKVDNALQSGNSQESVTEQDSKDSTYSLSSTLTLSKADYEKHKVYACEVTHQGLSSPVTKSFNRGEC
EC50 [1]: 1.6 nM

B6: v31926, negative control antibody [Hemagglutinin (HA) (2 scFv) x CD3 (1 Fab)] (bispecific antibody)
heavy 1: not shown
heavy 2: QVQLVQSGAEVKKPGASVRVSCRASGYIFTESGITWVRQAPGQGLEWMGWISGYSGDTKYAQKLQGRVTMTKDTSTTTAYMELRSLRYDDTAVYYCARDVQYSGSYLGAYYFDYWSPGTLVTVSSGGGGSGGGGSGGGGSGGGQSVLTQPPSASGTPGQRVTISCSGSSSNIGTNYVYWYQQFPGTAPKLLIYRSYQRPSGVPDRFSGSKSGSSASLAISGLQSEDEADYYCATWDDSLDGWVFGGGTKLTVLAAEPKSSDKTHTCPPCPAPEAAGGPSVFLFPPKPKDTLMISRTPEVTCVVVSVSHEDPEVKFNWYVDGVEVHNAKTKPREEQYNSTYRVVSVLTVLHQDWLNGKEYKCKVSNKALPAPIEKTISKAKGQPREPQVYVLPPSRDELTKNQVSLLCLVKGFYPSDIAVEWESNGQPENNYLTWPPVLDSDGSFFLYSKLTVDKSRWQQGNVFSCSVMHEALHNHYTQKSLSLSPG
light: NFMLTQPHSVSESPGKTVTISCKRNTGNIGSNYVNWYQQHEGSSPTTIIYRNDKRPDGVSDRFSGSIDRSSKSASLTISNLKTEDEADYFCQSYSSGFIFGGGTKLTVLGQPKAAPSVTLFPPSSEELQANKATLVCLISDFYPGAVTVAWKADSSPVKAGVETTTPSKQSNNKYAASSYLSLTPEQWKSHRSYSCQVTHEGSTVEKTVAPTECS
EC50 [17]: 102 nM
